Each sequence was assayed on K4 kissing-loop RNA reporter (assay: apparent KD of K4 kissing-loop reporter; higher = weaker reporter binding). Settings: Eterna round: R107; input ligand: arginine 13.2 mM.
Method: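 RNA-MaP round R107: designed RNA switches with theophylline, tryptophan, arginine or FMN aptamers are transcribed on-chip within common flanks. They are titrated with a labelled K4 kissing-loop RNA reporter in RNA-MaP buffer (100 mM Tris pH 7.5, 80 mM KCl, 4 mM MgCl2), without ligand or with the indicated ligand. Median apparent KD per design.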
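Also: bound reporter read as fluorescence of individual clusters on recovered sequencing chips by microscopy, with normalized cluster intensities fitted with a binding model.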

“GGUCCGCGGUCGGCCGCCACUGAACAAGACCAGUGAUGUUGGAUCUUCCAGUGCGUUGGCUUUAACAGGACCGGGACCGUGGAGC [Titia]” and “UGAUACCAGGCGGCCGCCACUCCCGCAGGUCAAAGACCUGCGAAGCUGGUUCUCCAGUGAUGUUGGAGGACCGGGCCUGGUAUCU [FiskerMod 26 - Jieux - Exclusion - Tryptophan B]” are within 1.5-fold of each other in “apparent KD of K4 kissing-loop reporter” value: 132 nM for the first, 141 nM for the second.

Going from “AACCCAUGACUGGAUACCAGACUAUACAUGCUGAGUGAUGUUUAGCGGAGUCAUCUCUCGGUCCCUUGGCAGCCAACGUCACGCG [theeternabot_sameState_KL_Theo_B_33]” to “UUGUUUUACUGAAGGAGCGGCAAUUGAUACGUAGAUAUAGUGAUGUUAUAUAAGAUAGAGAGCCAGGUAGGUCGCAGAUUUUUUU [ExArgB.V]”, the “apparent KD of K4 kissing-loop reporter” value falls from 334 nM to 157 nM (2.1-fold).

Compared with “AAUAAGUGUCAGCGAGUGAUGUUCGACGAUACCAGCCUCGAUAGAGGCCCUUGGCAGCGUAACGCAUGCCAAACUGGCACAAUAA [#SwitchBubble 7 #K4Early]”, “GGUGUGCCAGUGAUGUUGGCAUAAACUGAAGGAGCGCGUGAAAACGCAGGUAGGUCGCAGAACCUUGCCAACUAUUUUAUUCACC [Ex Arginine A K4 25]” is 2.9-fold lower in “apparent KD of K4 kissing-loop reporter” value: 497 nM for the first, 174 nM for the second.

Going from “AUGGUGGAGGAGUGAUGUUCUUGGAGUAGGUAGGAUAUGAGUGAUGUUAGAAGGAUCGGAGUGAUGUUCCAGGUGGUUGUGUUGU [KL-SSFMN-A2]” to “AGUGAUGUUGUGUUAUGUUAGGGAAGUGAUCGAGGACCGGUACGGCCGCCACUCGAGUGAUGAGUGAGUGAUGUUUGUUUAGGGA [yytmullin]”, the “apparent KD of K4 kissing-loop reporter” value rises from 303 nM to 670 nM (2.2-fold).

“AAUUAAUGUAUAGAUUAUAUACAUUAAUCAGAGGAUAUGCAUUGUUGCAGAAGGCUGAAUGCAGUGAUGUUGCAAUGGAAAUUUA [JR_SSFMNA_Sub004]” and “UGGUUAAGCAGUGAUGUUGCAAGUAAUGAUACCAGUUAAGAAGAGAACCCUUGGCAGCAUAAAGUGCGCUCUGAUGAGUGUGCUU [whbob_SS_Theo_A_w54]” are within 1.5-fold of each other in “apparent KD of K4 kissing-loop reporter” value: 201 nM for the first, 218 nM for the second.

First: GAUGAAGAGUCGUUAGUUAGGGCUUUCGAUACCAGCGCCCGUCCACGCCCUUGGCAGCGAUUGAAAGAGUGAUGUUCUGUCAGGA [theeternabot_exclusion_KL_Theo_A_31]
Second: UUUAUAUUGUCGGCCGCCACUGGAUUAAUAUUUGUAUAAUCUAGUUCAAAGUGAUGUUUUGAGUCCAGGACCGGGACAUUUGAUA [JR_Nu_ExcTryptoB_Sub029]
The “apparent KD of K4 kissing-loop reporter” value of the first is 1.6-fold lower: 309 nM for the first, 501 nM for the second.

“AGGACGUGAGAAGAUACCAGAGAAUAAUGCAGUGAUGUUGCUAAAUAUAAUUUAAUAUAACUCCCUUGGCAGCUUAAGUUAGUCU [Theophylline b same state]” and “UAGGGUUGAAAAGGAUAUUUACCCUAUGUCAACGAGUGAUGUUCGUGGACAUUAGGCACAACUCGUAAAGAAGGUUUCCAGACUC [theeternabot_sameState_KL_FMN_B_39]” are within 1.5-fold of each other in “apparent KD of K4 kissing-loop reporter” value: 120 nM for the first, 87.5 nM for the second.

Compared with “GCGCGUGUUAAAGGAUAUAGCAGGUGAUACAAGAAAGUGAGUGAUGUUUAUGUAGAUGAUGAUAUGUUAGAAGGUUAACACGCGC [abcdefghijklmnopqr]”, “AAUAUAGUGAUGUUAUAUAAGAAGGAGUUACGAGGACCGGUACGGCCGCCACUCGAAACGAGUGAGGAUUUGGGAGAUUGGGUCC [SSTryptA.K]” is 1.7-fold lower in “apparent KD of K4 kissing-loop reporter” value: 635 nM for the first, 366 nM for the second.

“UGGAGUGCCUGGUCGUCACUAUGCCAACCACGAGGACCGGUACGGCCGCCACUCGUGAGGGAUAUUCAGAAAGUGAUGUUUUUUG [theeternabot_exclusion_KL_Trp_A_1]” and “UUUUAUUAAUACUUCUAGUGAUGUUAGAUACGAGGACCGGUACGGCCGCCACUCGCUUAUUGGUUUAUAUAUUUUAUAUUCUUUA [JR_SSTryptoA_Sub014]” are within 1.5-fold of each other in “apparent KD of K4 kissing-loop reporter” value: 370 nM for the first, 362 nM for the second.

First: AGAGGUCCCAGUGAUGUUGGUGCGUUUGGUCGAGGACCGGUACGGCCGCCACUCGUUCAUAGUAAGCCCUCUUUAGUGUUUCUAA [theeternabot_sameState_KL_Trp_A_9]
Second: AGAUUCGACACGGCCGCCACUUGUGGUGGAUUAUCCUAUGUAAGACAUGAGUGAUGUUCAUGUACAAGGACCGGGUGUUGAGUCU [KL-XTryp-B4 #analogue]
The “apparent KD of K4 kissing-loop reporter” value of the first is 1.9-fold higher: 336 nM for the first, 177 nM for the second.

Compared with “CGAGUCAAUUCAGAUACCAGCCAAUUAAAGUCGAGUGAUGUUCGACAAUGAACAUCCAAAGGCCCUUGGCAGCUGAAUUGGGAAC [Same State Theophylline B GF 18]”, “GGAGUUACCUGGGAUACCAGUCGGAGUCUCAGAGCUCGGAGUGAUGUUCUGGGAUGUUUCGGCCCUUGGCAGCUCUGGGACUCCU [#2 Exclusion - Theophylline B Attempt #17 (HarryS)]” is 6.5-fold higher in “apparent KD of K4 kissing-loop reporter” value: 87.3 nM for the first, 569 nM for the second.

“UCUGGAGCAUAUGAUACCAGCAGUGAGAGACAGGAAGUAUAGUGAUGUUAUAUGAGAGAAUGCCCUUGGCAGCGUGUGCAGUGGG [SSTheophylB.O]” and “GUCUCAAAAGAGGCAAGCACUAACGAGGACAAGGAUAUCAUCUCAAUGAGAAGGUGUCCUCGUCCUUAGUGAUGUUAAGGAGUGC [Omei KL FMN A SS E v5]” are within 1.5-fold of each other in “apparent KD of K4 kissing-loop reporter” value: 157 nM for the first, 226 nM for the second.

“AGGUGCUACGGAAGGAGCGCACCAGUGAUGUUGGUGUGUGACCGUGACAUGGCAGUCAAGGUGCAGGUAGGUCGCCGUGGCCAUA [Rigela]” and “GGAUUGCCAGUGAUGUUGGCAUAAACUGAAGGAGCGCGUGAAAACGCAGGUAGGUCGCAGAACCUUGCCAACUAUUUUAUUUACC [Ex Arginine A K4 23]” are within 1.5-fold of each other in “apparent KD of K4 kissing-loop reporter” value: 135 nM for the first, 118 nM for the second.

— the supplement of paper PMC9170038
